Laboratory results from patent publication EP4703384A1.

How the values were obtained:
[1] = biological target: human GPRC5D protein (human) (UniProt Q9NZD1); assay: FACS on NCI-H929 cells; negative control
[2] = biological target: human GPRC5D protein (human) (UniProt Q9NZD1); assay: FACS on RPMI-8226 cells; negative control
[3] = biological target: human GPRC5D protein (human) (UniProt Q9NZD1); assay: FACS on MM.1S cells; negative control

human GPRC5D protein (human), sequence (Q9NZD1 whole entry): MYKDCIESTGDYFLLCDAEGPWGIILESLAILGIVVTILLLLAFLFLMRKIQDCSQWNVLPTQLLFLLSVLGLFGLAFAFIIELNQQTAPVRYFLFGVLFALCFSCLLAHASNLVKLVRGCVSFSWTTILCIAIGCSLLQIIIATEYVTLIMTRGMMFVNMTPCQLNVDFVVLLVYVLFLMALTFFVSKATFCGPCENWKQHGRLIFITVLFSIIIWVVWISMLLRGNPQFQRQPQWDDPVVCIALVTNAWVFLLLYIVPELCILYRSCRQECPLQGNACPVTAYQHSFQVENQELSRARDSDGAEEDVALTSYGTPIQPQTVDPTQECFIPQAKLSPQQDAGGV

Q: Which results are given for “hIgG1 monoclonal antibody (Biointron, Cat. No. B117901)”?
A: Top(MFI) [1]: 4180 MFI; Top(MFI) [2]: 3860 MFI; Top(MFI) [3]: 6770 MFI
